According to US20220229068A1, “DETECTION OF PROTEIN TO PROTEIN INTERACTIONS” (THE GOVERNING COUNCIL OF THE UNIVERSITY OF TORONTO, priority 2019, published 2022):
Blank lines part the entries; values can stand above or below the substance they belong to.

How the values were obtained:
[1] = target: LMNB1 (prey, CIC format) (human) (UniProt P20700); test: SIMPL ELISA, bait-IN/prey-CIC
[2] = target: T1, PEX3 (prey, CIC format) (human) (UniProt P56589); test: SIMPL ELISA, bait-IN/prey-CIC
T1 sequence (looked up): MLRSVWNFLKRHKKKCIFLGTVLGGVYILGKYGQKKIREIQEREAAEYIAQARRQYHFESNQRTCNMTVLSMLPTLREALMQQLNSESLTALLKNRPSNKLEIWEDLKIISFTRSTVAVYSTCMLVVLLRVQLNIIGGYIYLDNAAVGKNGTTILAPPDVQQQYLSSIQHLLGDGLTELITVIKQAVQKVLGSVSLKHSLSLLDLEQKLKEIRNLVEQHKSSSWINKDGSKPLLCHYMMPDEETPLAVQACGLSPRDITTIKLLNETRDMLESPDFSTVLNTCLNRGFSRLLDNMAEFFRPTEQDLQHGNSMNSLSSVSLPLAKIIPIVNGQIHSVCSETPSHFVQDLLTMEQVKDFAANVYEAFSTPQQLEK

[3] = target: T2, RB1 (prey, CIC format) (human) (UniProt P06400); test: SIMPL ELISA, bait-IN/prey-CIC
T2 sequence (looked up): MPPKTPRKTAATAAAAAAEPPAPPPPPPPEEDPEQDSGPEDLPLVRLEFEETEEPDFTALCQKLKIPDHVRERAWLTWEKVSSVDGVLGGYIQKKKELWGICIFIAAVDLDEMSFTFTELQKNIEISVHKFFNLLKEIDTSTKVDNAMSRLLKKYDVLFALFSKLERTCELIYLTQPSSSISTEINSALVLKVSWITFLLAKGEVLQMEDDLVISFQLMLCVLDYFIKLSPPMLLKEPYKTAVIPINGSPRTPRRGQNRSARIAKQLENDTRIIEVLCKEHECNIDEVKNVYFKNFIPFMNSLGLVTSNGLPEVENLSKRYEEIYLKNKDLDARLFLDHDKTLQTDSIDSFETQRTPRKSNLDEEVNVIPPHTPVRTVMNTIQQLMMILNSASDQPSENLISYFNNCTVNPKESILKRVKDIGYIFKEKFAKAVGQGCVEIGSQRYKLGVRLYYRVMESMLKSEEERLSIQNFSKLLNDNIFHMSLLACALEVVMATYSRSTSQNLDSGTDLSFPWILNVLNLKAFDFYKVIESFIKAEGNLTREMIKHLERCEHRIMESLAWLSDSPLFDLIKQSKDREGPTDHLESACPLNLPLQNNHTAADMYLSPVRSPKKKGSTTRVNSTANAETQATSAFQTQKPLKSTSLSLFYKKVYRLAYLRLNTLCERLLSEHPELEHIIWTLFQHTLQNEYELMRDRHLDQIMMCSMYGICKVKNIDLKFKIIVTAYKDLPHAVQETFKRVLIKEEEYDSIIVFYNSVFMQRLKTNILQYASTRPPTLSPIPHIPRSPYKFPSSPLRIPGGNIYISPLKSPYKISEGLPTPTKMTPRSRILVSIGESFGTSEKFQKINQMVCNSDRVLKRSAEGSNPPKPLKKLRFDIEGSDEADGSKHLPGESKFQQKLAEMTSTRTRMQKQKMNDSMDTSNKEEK

[4] = target: RPA3 (prey, CIC format) (human) (UniProt P35244); test: SIMPL ELISA, bait-IN/prey-CIC
RPA3 (prey, CIC format) (human), sequence (P35244 whole entry): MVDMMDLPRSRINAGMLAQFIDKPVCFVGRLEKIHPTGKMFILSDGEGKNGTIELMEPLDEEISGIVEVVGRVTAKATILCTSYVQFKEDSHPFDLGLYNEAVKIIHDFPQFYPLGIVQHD

[5] = target: S100A7 (prey, CIC format) (human) (UniProt P31151); test: SIMPL ELISA, bait-IN/prey-CIC
S100A7 (prey, CIC format) (human), sequence (P31151 whole entry, canonical isoform): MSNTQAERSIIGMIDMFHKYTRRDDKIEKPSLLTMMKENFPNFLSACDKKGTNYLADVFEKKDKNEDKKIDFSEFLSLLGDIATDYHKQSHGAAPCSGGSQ

[6] = target: NPP-1 (C. elegans prey, IC format) (C. elegans); test: SIMPL ELISA, C. elegans lysate, IN/IC; ratio of spliced signal to total signal
[7] = target: EZR (prey, CIC format) (human) (UniProt P15311); test: SIMPL ELISA, bait-IN/prey-CIC
EZR (prey, CIC format) (human), sequence (P15311 whole entry): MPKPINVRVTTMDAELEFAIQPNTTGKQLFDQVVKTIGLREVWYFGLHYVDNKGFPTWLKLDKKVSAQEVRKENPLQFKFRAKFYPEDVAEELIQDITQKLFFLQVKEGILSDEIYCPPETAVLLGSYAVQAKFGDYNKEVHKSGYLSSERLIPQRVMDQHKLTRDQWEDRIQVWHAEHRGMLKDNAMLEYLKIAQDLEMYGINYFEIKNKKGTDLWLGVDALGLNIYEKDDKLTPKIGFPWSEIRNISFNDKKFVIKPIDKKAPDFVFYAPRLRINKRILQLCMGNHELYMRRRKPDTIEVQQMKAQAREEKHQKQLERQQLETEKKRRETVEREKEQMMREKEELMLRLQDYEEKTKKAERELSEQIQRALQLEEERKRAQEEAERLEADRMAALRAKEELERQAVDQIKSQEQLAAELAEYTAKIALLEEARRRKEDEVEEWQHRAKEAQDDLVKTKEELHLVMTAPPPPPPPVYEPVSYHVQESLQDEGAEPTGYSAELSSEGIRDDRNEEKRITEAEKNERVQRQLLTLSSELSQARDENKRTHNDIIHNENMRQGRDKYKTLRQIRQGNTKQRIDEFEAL

[8] = target: SRC (prey, CIC format) (human) (UniProt P12931); test: SIMPL ELISA, bait-IN/prey-CIC
[9] = target: T3, NOD1 (prey, CIC format) (human) (UniProt Q9Y239); test: SIMPL ELISA, bait-IN/prey-CIC
T3 sequence (looked up): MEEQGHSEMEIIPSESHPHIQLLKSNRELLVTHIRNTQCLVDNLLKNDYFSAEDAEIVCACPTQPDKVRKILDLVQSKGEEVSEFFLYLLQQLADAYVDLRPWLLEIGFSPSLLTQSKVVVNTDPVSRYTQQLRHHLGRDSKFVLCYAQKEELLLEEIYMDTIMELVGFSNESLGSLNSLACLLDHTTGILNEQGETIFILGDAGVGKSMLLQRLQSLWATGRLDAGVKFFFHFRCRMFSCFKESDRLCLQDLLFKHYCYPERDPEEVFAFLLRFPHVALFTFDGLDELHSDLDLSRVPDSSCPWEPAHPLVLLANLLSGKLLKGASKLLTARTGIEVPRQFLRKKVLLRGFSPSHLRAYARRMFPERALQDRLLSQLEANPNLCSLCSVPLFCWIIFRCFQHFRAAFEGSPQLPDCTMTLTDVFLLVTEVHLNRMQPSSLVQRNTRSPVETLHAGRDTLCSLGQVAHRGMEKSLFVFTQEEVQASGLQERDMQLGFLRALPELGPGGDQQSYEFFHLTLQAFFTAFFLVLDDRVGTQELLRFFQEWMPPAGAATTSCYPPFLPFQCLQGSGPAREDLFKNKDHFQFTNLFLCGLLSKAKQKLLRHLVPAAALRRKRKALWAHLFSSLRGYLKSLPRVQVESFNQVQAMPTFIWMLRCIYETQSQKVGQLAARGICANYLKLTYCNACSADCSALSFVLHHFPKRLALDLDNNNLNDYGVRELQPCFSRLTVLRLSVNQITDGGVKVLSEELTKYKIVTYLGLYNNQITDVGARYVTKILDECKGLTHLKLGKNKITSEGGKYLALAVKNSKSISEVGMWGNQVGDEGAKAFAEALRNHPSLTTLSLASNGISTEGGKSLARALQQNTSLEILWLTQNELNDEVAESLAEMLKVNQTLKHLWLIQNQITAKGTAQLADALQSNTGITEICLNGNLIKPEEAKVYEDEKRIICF

[10] = target: RAD23A (prey, CIC format) (human) (UniProt P54725); test: SIMPL ELISA, bait-IN/prey-CIC
RAD23A (prey, CIC format) (human), sequence (P54725 whole entry): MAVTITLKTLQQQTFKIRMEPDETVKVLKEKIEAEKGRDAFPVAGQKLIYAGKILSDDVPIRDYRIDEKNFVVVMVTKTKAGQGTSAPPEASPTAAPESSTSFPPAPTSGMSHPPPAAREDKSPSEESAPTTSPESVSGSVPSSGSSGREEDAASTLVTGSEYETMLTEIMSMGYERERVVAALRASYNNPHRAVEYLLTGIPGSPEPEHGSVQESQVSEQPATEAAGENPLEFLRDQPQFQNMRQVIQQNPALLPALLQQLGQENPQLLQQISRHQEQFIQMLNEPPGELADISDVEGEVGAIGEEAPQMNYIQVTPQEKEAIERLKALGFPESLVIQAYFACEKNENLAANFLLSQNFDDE

[11] = target: TCL1A (prey, CIC format) (human) (UniProt P56279); test: SIMPL ELISA, bait-IN/prey-CIC
TCL1A (prey, CIC format) (human), sequence (P56279 whole entry): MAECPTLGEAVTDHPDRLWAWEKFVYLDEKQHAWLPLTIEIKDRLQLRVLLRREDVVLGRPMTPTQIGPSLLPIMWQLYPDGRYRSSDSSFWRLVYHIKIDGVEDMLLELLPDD

[12] = target: HSP90AA1 (prey, CIC format) (human) (UniProt P07900); test: SIMPL ELISA, bait-IN/prey-CIC
[13] = target: RELA (prey, CIC format) (human) (UniProt Q04206); test: SIMPL ELISA, bait-IN/prey-CIC
RELA (prey, CIC format) (human), sequence (Q04206 whole entry, canonical isoform): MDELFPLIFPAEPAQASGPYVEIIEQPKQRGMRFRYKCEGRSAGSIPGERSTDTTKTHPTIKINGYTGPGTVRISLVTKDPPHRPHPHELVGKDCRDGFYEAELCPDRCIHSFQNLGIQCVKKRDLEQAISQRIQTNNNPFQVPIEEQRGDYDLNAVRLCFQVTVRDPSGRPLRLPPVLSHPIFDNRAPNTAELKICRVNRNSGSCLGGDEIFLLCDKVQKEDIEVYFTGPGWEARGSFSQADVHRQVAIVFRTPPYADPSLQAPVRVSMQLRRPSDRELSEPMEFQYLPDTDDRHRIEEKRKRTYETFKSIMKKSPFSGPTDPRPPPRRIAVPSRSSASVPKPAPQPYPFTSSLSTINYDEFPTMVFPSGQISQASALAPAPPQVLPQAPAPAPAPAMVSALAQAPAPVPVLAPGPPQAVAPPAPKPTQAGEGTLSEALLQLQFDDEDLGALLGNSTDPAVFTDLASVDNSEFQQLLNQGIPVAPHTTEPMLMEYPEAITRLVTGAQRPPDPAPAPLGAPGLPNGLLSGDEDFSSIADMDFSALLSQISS

[14] = target: F44B9.8 (C. elegans prey, IC format) (C. elegans) (UniProt P34429); test: SIMPL ELISA, C. elegans lysate, IN/IC; ratio of spliced signal to total signal
F44B9.8 (C. elegans prey, IC format) (C. elegans), sequence (P34429 whole entry, canonical isoform): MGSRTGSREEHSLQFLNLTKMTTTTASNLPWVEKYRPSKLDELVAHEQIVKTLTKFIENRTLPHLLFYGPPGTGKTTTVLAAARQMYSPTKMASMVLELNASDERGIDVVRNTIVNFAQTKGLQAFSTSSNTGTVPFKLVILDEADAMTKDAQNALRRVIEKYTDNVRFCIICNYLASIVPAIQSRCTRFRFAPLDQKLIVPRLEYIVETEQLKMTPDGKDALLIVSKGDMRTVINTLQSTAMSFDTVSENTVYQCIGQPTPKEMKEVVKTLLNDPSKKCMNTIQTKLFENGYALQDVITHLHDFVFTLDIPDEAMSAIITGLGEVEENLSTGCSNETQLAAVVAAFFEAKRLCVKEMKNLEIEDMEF

[15] = target: PTK2 (prey, CIC format) (human) (UniProt Q05397); test: SIMPL ELISA, bait-IN/prey-CIC
[16] = target: T4, SOC-2 (C. elegans prey, IC format) (C. elegans) (UniProt Q22875); test: SIMPL ELISA, C. elegans lysate, IN/IC; ratio of spliced signal to total signal
T4 sequence (looked up): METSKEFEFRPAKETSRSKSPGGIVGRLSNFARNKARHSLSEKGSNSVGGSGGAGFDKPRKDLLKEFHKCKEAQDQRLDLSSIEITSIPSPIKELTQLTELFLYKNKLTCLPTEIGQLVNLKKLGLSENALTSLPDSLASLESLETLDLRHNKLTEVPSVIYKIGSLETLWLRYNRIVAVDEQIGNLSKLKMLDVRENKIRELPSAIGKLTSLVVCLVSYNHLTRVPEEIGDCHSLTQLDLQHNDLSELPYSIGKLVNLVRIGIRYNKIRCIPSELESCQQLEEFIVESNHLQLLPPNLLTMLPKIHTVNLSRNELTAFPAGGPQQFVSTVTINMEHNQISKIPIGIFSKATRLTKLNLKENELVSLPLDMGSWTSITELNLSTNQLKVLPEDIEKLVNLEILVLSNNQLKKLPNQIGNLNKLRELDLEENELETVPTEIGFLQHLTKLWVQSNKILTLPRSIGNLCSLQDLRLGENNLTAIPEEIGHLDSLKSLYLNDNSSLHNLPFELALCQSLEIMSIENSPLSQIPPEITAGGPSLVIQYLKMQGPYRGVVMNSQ

[17] = target: T5, SOC-2 (C. elegans prey, CIC format) (C. elegans) (UniProt Q22875); test: SIMPL ELISA, C. elegans lysate, IN/CIC; ratio of spliced signal to total signal
T5 sequence (looked up): T4 sequence (looked up)

[18] = target: RACK1 (prey, CIC format) (human) (UniProt P63244); test: SIMPL ELISA, bait-IN/prey-CIC
[19] = target: T6, ARFIP2 (prey, CIC format) (human) (UniProt P53365); test: SIMPL ELISA, bait-IN/prey-CIC
T6 sequence (looked up): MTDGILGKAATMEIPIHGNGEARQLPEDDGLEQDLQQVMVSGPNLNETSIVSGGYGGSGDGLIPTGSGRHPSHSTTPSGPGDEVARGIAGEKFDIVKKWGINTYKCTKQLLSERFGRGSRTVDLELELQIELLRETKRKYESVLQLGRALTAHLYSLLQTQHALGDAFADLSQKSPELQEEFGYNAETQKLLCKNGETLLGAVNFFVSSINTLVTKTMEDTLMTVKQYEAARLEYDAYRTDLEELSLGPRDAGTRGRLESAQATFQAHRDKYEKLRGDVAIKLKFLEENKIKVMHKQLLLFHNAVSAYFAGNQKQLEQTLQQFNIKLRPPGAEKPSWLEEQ

[20] = target: CASP9 (prey, CIC format) (human) (UniProt P55211); test: SIMPL ELISA, bait-IN/prey-CIC
CASP9 (prey, CIC format) (human), sequence (P55211 whole entry, canonical isoform): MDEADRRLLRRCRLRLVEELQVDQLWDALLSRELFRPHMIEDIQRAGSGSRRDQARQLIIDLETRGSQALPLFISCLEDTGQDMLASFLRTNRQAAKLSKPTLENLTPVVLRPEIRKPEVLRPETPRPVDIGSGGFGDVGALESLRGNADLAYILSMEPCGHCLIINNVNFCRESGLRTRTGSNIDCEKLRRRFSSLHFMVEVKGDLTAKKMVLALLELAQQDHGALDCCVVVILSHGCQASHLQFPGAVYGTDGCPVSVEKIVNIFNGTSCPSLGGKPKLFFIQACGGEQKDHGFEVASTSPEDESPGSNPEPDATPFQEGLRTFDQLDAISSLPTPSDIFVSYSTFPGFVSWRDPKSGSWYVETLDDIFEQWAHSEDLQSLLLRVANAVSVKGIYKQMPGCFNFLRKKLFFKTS

[21] = target: CYB-1 (C. elegans prey, CIC format) (C. elegans) (UniProt Q10653); test: SIMPL ELISA, C. elegans lysate, IN/CIC; ratio of spliced signal to total signal
CYB-1 (C. elegans prey, CIC format) (C. elegans), sequence (Q10653 whole entry, canonical isoform): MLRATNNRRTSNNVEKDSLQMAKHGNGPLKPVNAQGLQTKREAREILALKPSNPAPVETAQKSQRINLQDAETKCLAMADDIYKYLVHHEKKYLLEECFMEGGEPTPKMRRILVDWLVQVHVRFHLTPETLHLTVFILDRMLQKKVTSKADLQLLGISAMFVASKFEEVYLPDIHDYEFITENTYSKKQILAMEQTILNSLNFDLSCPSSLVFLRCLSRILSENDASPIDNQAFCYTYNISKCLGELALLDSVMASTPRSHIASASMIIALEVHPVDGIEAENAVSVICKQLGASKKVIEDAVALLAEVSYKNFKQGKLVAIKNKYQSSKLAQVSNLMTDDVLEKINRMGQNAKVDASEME

[22] = target: GRB2 (prey, CIC format) (human) (UniProt P62993); test: SIMPL ELISA, bait-IN/prey-CIC
[23] = target: SMAD4 (prey, CIC format) (human) (UniProt Q13485); test: SIMPL ELISA, bait-IN/prey-CIC
SMAD4 (prey, CIC format) (human), sequence (Q13485 whole entry): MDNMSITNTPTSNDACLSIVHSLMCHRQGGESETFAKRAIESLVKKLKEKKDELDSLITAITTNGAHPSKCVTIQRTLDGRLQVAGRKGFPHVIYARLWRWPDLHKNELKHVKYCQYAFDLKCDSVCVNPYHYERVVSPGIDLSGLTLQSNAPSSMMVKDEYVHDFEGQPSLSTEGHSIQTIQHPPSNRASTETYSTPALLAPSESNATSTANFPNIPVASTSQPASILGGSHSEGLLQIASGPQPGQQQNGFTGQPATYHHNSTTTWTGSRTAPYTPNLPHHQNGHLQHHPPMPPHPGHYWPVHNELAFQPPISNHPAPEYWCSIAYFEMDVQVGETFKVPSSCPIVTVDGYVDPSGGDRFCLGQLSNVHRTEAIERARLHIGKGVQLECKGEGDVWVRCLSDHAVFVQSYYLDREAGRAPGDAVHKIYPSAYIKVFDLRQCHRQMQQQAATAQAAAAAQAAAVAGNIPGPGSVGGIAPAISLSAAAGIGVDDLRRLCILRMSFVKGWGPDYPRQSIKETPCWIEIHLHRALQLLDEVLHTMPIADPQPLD

LMNB1 (prey, CIC format) (human), sequence (P20700 whole entry): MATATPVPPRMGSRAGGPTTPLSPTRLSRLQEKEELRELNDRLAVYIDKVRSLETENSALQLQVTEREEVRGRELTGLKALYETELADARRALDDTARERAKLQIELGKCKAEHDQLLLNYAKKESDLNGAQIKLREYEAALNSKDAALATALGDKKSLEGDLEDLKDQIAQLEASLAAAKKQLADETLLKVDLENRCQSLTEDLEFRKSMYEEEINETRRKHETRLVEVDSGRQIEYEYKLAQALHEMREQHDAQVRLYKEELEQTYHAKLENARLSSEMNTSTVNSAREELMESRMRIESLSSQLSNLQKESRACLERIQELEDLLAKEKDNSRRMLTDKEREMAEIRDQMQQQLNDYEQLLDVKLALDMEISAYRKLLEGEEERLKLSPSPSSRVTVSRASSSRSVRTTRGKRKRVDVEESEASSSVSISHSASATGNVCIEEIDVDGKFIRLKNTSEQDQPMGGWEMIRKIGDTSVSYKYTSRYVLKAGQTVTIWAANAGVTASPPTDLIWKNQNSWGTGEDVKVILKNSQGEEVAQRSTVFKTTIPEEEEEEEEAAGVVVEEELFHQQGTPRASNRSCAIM
PDE4D (bait, IN format), sequence (Q08499 whole entry): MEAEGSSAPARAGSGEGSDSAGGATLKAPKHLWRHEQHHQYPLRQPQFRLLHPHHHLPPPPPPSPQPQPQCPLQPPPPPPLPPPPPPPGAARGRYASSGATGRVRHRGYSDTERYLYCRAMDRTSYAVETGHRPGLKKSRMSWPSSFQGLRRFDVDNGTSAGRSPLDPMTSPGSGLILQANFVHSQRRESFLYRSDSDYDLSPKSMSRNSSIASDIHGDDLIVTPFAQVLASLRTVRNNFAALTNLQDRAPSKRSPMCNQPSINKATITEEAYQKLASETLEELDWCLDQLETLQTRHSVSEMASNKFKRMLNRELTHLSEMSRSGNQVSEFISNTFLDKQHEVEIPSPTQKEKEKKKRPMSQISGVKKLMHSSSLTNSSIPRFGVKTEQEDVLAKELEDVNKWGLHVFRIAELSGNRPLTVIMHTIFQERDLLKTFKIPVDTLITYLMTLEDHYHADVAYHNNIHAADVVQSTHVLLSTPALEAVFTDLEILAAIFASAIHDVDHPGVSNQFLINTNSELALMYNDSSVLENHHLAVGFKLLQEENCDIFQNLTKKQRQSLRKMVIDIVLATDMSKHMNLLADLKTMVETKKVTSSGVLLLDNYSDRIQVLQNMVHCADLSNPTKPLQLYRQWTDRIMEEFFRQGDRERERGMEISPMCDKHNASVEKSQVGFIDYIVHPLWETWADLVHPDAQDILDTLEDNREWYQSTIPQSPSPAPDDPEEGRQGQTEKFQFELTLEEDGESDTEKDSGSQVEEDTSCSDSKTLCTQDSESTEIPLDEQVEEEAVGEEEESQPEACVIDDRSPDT

Substance: RPA2 (bait, IN format) (from UniProt P15927 1-270)
PLU mean [4]: 2.72
PLU mean [5]: 0.0606

Substance: PRKAR2A (bait, IN format) (from UniProt P13861 1-404)
PLU mean [7]: 0.123
PLU mean [8]: 0.186

Substance: PSMD4 (bait, IN format) (from UniProt P55036 1-377)
PLU mean [9]: 0.845
PLU mean [10]: 0.919
PLU mean [11]: 0.108

Substance: NR3C1 (bait, IN format) (from UniProt P04150 1-777) (receptor)
PLU mean [12]: 0.652
PLU mean [10]: 0.183
PLU mean [13]: 0.63

Substance: LET-60 (C. elegans bait, IN-V5/HA) (from UniProt P22981 1-184)
ELISA Value Replicate 1 [16]: 1.2
ELISA Value Replicate 2 [16]: 0.59
ELISA Value Replicate 1 [17]: 0.79
ELISA Value Replicate 2 [17]: 0.7

Substance: PDE4D (bait, IN format) (from UniProt Q08499 1-809) (enzyme)
PLU mean [7]: 0.137
PLU mean [18]: 0.639

Substance: XIAP (bait, IN format) (from UniProt P98170 1-497)
PLU mean [19]: 0.439
PLU mean [20]: 0.811

Next, values leading:

PLU mean [1]: 0.861
PLU mean [2]: 0.224
PLU mean [3]: 1.18
Substance: LMNA (bait, IN format) (from UniProt P02545 1-664)

ELISA Value Replicate 1 [6]: 1.8
ELISA Value Replicate 2 [6]: 0.92
Substance: NPP-11 (C. elegans bait, IN-V5/HA)

ELISA Value Replicate 1 [14]: 0.66
ELISA Value Replicate 2 [14]: 0.88
Substance: RFC-2 (C. elegans bait, IN-V5/HA)

PLU mean [15]: 0.174
PLU mean [5]: 0.134
Substance: FABP5 (bait, IN format) (from UniProt Q01469 1-135)

ELISA Value Replicate 1 [21]: 1.1
ELISA Value Replicate 2 [21]: 0.8
Substance: CDK-1 (C. elegans bait, IN-V5/HA) (from UniProt P34556 1-332) (enzyme)

PLU mean [22]: 0.151
PLU mean [23]: 0.182
Substance: SMAD1 (bait, IN format) (from UniProt Q15797 1-465)
